B1: anti-GGX monoclonal antibody 2B12 (rabbit IgG) (antibody, V domains shown)
VH: QSVEESGGGLVTPGGALTLTCTASGFSLNRHWMNWVRQAPGKGLEWIGAINESGRTYYATWAKGRFFISKTTTTVDLKITSPTTADTATYFCVRDDDVSNFWGPGTLVTVSS
VL: DPMLTQTPSSVSAAVGGTVSINCQSTKSVYKYNHLSWYQQKPGQPPKQLIFPASTLQSGVPSRFSGSGSGTQFTLTISDVQCDDAATYYCLGLYDCRSGDCNVFGGGTKLEIKG
B2: anti-GGX monoclonal antibody 2E9 (rabbit IgG) (antibody, V domains shown)
VH: QKQLMESGGRLVTPGTPLTLTCKVSGFSLSSYYMNWVRQAPGKGLEWIGIMFPNGKIYYATWAKGRFTISKTSTTVDLKIISPTTEDTATYFCTGDDSGDVNIWGPGTLVTVSS
VL: DIVLTQTASPVSAAVGGTVTINCQSSQSVYTNNRLAWYQQKPGQPAKEMIYGASTLPSGVSSRFKGSGSGTQFALTISDVQCDDAATYYCLGEFDCTSADCFVFGGGTEVVVKG
B3: anti-GGX monoclonal antibody 2H2 (rabbit IgG) (antibody, V domains shown)
VH: QSVEESRGRLVTPGTPLTLTCKVSGFSLSSYYMNWVRQAPGKGLEWIGIMFPNGKIYYATWAKGRFTISKTSTTVDLKIISPTTEDTATYFCTGDDSGDVNIWGPGTLVTVSS
VL: B2 VL with I2P, V3M, T31S, A46P, A74T, E93T, F94Y, T97L, F102L, V103A

Numbering of substitutions follows the chain as printed.

Data on three molecules can be found in US20240109958A1.

The target in this assay is internal GGX peptides (genome-encoded GGX sequences exposed by trypsin digestion of HEK293 lysate). The experiment in a line: immunoaffinity enrichment from trypsin-digested HEK293 lysate, LC-MS/MS; count of internal GGX sequences enriched.
In the case of B1, the Shared sequences amounted to 8 sequences and the Unique sequences was 8 sequences.
In turn, B2 returned a Shared sequences of 14 sequences and a Unique sequences of 41 sequences.
The matching figures for B3: 20 sequences and 47 sequences.
